This is an account of results in the RNAGym collection of RNA variant scans (doi:10.1073/pnas.2313332121).

This sample holds only a part of the variants without activity.

To fix the notation:
B1: TPR 5TU (parent)
chain: GGAUCUUCUCGAUCUAACAAAAAAGACAAAUCUGCCACAAAGCUUGAGAGCAUCUUCGGAUGCAGAGGCGGCAGCCUUCGGUGGCGCGAUAGCGCCAACGUUCUCAACUAUGACACGCAAAACGCGUGCUCCGUUGAAUGGAGUUUAUCAUG

The data set covers variants of B1. Kind of data set: polymerase ribozyme fitness, log enrichment relative to wild type (log ratio); higher = more active; in vitro selection for triplet polymerase activity. The method in brief:
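Mutant libraries of both subunits of a heterodimeric triplet polymerase ribozyme were PCR-built, transcribed, and selected once in triplicate, with frozen incubation at −7 °C and capture of gel-excised extended constructs on streptavidin beads before RT-PCR. Illumina sequencing of input and output libraries was filtered to genotypes with ≥10 input reads and ≥1 read per output. Fitness is the logarithm of genotype enrichment over wild-type enrichment, using inverse-variance-weighted replicate averages. The logarithm is base 2.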
With GGAUCUUCUCGAUCUAACAAAAAAGACAAAUCUGCCACAAAGCUUGAGAGCAUCUUCGGAUGCAGAGGCGGCAGCCUUCGGUGGCUCGAUAGCGCCAAGGUUCUCAACUAUGACACGCAAAACGCGUGCUCCGUUGAAUGGAGUUUAUCAUG, the “polymerase ribozyme fitness (log ratio)” value is -3.67.

Consider GGAUCUUCUCGAUCUAACAAAAAAGACAAAUCUGCCACAAAGCUUGAGAGCAUCUUCGGAUGCAGAGGCGGCAGCCUUCGGUGGCACGAUAGCGCCAACGUUCUCAACUAUGACACGCAAAACGCGUGCUCCGUUGAAGGGAGUUUAUCAUG, for which the “polymerase ribozyme fitness (log ratio)” value was -1.36. With GGAUCUUCUCGAUCUAACAAAAAAGACAAAUCUGCCACAAAGCUUGAGAGCAUCUUCGGAUGCAGAGGCGGCAGCCUUCGGUGGCACGAUAGCGCCAACGUUCUCAACUAUGACACGCAAUACGCGUGCUCCGUUGAAUGGAGUUUAUCAUG the figure was -0.51; with GGAUCUUCUCGAUCUAACAAAAAAGACAAAUCUGCCACAAAGCUUGAGAGCAUCUUCGGAUGCAGAGGCGGCAGCCUUCGGUGGCACGAUAGCGCCAACGGUCUCAACUAUGACACGCAAAACGCGUGCUCCGUUGAAUGGAGUUUAUCAUG, -0.828. GGAUCUUCUCGAUCUAACAAAAAAGACAAAUCUGCCACAAAGCUUGAGAGCAUCUUCGGAUGCAGAGGCGGCAGCCUUCGGUGGUGCGAUAGCGCCAACGUUCUCAACUAUGACACGCAAAACGCGGGCUCCGUUGAAUGGAGUUUAUCAUG: the “polymerase ribozyme fitness (log ratio)” value is -3.46. Take GGAUCUUCUCGAUCUAACAAAAAAGACAAAUCUGCCACAAAGCUUGAGAGCAUCUUCGGAUGCAGAGGCGGCAGCCUUCGGUGGCACGAUAGCGCCAACGUUCUCAACUAUGACACGCAAAAAGCGUGCUCCGUUGAAUGGAGUUUAGCAUG: the “polymerase ribozyme fitness (log ratio)” value was -4.02. With GGAUCUUCUCGAUCUAACAAAAAAGACAAAUCUGCCACAAAGCUUGAGAGCAUCUUCGGAUGCAGAGGCGGCAGCCUUCGGUGGCUCGAUAGCGCCAACGUUCUCAACUAUGACACGCAAAACGCGUGCUCCGUUGAAUGGAGUUUGUCAUG the figure was -3.45; with GGAUCUUCUCGAUCUAACAAAAAAGACAAAUCUGCCACAAAGCUUGAGAGCAUCUUCGGAUGCAGAGGCGGCAGCCUUCGGUGGUGCGAUAGCGCCAACGUUCUCAACUAUGACACGCAAAACGCGUGCUCCGCUGAAUGGAGUUUAUCAUG, -1.76; with GGAUCUUCUCGAUCUAACAAAAAAGACAAAUCUGCCACAAAGCUUGAGAGCAUCUUCGGAUGCAGAGGCGGCAGCCUUCGGUGGCCCGUUAGCGCCAACGUUCUCAACUAUGACACGCAAAACGCGUGCUCCGUUGAAUGGAGUUUAUCAUG, -2.94. The figure for GGAUCUUCUCGAUCUAACAAAAAAGACAAAUCUGCCACAAAGCUUGAGAGCAUCUUCGGAUGCAGAGGCGGCAGCCUUCGGUGGCACGAGAGCGCCAACGUUCUCAACUAUGACACGCAAAACGCGUGCUCCGUUGAAUGGAGUUUAUCAUG is no more than -4.2.

GGAUCUUCUCGAUCUAACAAAAAAGACAAAUCUGCCACAAAGCUUGAGAGCAUCUUCGGAUGCAGAGGCGGCAGCCUUCGGUGGCUCGAUAGCGCCAACGUUCUCAACUAUGACACGCAAAAAGCGUGCUCCGUUGAAUGGAGUUUAUCAUG: the “polymerase ribozyme fitness (log ratio)” value is -1.99. With GGAUCUUCUCGAUCUAACAAAAAAGACAAAUCUGCCACAAAGCUUGAGAGCAUCUUCGGAUGCAGAGGCGGCAGCCUUCGGUGGCACGAUAGCGCCAACAUUCUCAACUAUGACACGCAAAACGCGUGCUCCGUUGAAUGGAGUUUAUCAUG the figure was -3.89; with GGAUCUUCUCGAUCUAACAAAAAAGACAAAUCUGCCACAAAGCUUGAGAGCAUCUUCGGAUGCAGAGGCGGCAGCCUUCGGUGGCUCGAUAGCGCCAACGUUCUCAACUAUGACACGUAAAACGUGUGCUCCGUUGAAUGGAGUUUAUCAUG, -4.01; with GGAUCUUCUCGAUCUAACAAAAAAGACAAAUCUGCCACAAAGCUUGAGAGCAUCUUCGGAUGCAGAGGCGGCAGCCUUCGGUGGCUCGAUAGCGCCAACGUUCUCAACUAUGACACGUGAAACGCGUGCUCCGUUGAAUGGAGUUUAUCAUG, -4.19. With GGAUCUUCUCGAUCUAACAAAAAAGACAAAUCUGCCACAAAGCUUGAGAGCAUCUUCGGAUGCAGAGGCGGCAGCCUUCGGUGGCCCGAUAGCGCCAACGUUCUCAACUAUGACACGCAAAACGCUUGCUACGUUGAAUGGAGUUUAUCAUG the figure was no more than -4.2; with GGAUCUUCUCGAUCUAACAAAAAAGACAAAUCUGCCACAAAGCUUGAGAGCAUCUUCGGAUGCAGAGGCGGCAGCCUUCGGUGGUGCGAUAGCGCCAACGUUCUCAACUAUGACACGCAAAACGCGUGCUCCGUUGAAUGGAGUUAAUCAUU, -3.06; with GGAUCUUCUCGAUCUAACAAAAAAGACAAAUCUGCCACAAAGCUUGAGAGCAUCUUCGGAUGCAGAGGCGGCAGCCUUCGGUGGCUCGAUAGCGCCAACGUUCUCAACUAUGACGCGCAAAACGCGUGCUCCGUUGAAUGGAGUUUAUCAUG, -2.39. With GGAUCUUCUCGAUCUAACAAAAAAGACAAAUCUGCCACAAAGCUUGAGAGCAUCUUCGGAUGCAGAGGCGGCAGCCUUCGGUGGCUCGAUCGCGCCAAGGUUCUCAACGAUGACACGCAAAACGCGUGCUCCGUUGAAUGGAGUUUAUCAUG the figure was no more than -4.2; with GGAUCUUCUCGAUCUAACAAAAAAGACAAAUCUGCCACAAAGCUUGAGAGCAUCUUCGGAUGCAGAGGCGGCAGCCUUCGGUGGCUCGAUAGCGCCAACGUUCUCCACUAUGACACGCAAAACGCGUGCUCCGUUGAAUGGAGUUUAUCAUG, -1.79.
